Target: T1, leukocyte function antigen-1 (LFA-1), composed of CD11a and CD18, on the surface of white blood cells (human, UniProt P20701 26-1170; P05107 23-769)
T1 construct: whole, on cells; also called CD11a/CD18; wild type form of the receptor
Test: flow cytometry, THP-1 cells mixed with LtxA-FITC for 30 min at 0 C

T1 sequence (P20701 26-1170, chain 1 of 2): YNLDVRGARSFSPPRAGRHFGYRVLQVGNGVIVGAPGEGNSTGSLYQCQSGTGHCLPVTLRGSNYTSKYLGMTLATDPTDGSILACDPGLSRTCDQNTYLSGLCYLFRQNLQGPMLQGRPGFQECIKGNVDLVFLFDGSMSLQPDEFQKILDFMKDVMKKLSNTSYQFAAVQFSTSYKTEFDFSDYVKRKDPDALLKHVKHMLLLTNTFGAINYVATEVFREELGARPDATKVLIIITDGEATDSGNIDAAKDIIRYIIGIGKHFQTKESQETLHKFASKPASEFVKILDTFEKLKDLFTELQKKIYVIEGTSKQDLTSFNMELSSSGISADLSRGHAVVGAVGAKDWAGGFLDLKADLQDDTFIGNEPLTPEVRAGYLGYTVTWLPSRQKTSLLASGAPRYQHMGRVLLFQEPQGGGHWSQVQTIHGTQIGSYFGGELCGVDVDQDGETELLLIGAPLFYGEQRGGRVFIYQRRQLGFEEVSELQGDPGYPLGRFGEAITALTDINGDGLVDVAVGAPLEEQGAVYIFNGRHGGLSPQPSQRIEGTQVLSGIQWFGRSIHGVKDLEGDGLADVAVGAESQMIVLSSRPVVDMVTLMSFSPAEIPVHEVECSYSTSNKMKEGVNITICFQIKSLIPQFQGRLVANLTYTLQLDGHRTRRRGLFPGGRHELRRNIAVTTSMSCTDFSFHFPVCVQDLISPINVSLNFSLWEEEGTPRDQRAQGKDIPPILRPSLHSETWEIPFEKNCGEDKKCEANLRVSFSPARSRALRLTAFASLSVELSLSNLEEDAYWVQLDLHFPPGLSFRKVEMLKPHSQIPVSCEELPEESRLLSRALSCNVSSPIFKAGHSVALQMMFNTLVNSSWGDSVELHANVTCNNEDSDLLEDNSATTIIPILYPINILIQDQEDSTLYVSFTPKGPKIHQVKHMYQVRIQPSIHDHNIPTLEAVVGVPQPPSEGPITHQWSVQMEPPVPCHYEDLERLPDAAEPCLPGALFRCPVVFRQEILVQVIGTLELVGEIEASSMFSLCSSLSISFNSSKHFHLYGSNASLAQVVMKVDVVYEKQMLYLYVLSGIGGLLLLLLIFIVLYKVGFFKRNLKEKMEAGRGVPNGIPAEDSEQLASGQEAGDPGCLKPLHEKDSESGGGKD
T1 sequence (P05107 23-769, chain 2 of 2): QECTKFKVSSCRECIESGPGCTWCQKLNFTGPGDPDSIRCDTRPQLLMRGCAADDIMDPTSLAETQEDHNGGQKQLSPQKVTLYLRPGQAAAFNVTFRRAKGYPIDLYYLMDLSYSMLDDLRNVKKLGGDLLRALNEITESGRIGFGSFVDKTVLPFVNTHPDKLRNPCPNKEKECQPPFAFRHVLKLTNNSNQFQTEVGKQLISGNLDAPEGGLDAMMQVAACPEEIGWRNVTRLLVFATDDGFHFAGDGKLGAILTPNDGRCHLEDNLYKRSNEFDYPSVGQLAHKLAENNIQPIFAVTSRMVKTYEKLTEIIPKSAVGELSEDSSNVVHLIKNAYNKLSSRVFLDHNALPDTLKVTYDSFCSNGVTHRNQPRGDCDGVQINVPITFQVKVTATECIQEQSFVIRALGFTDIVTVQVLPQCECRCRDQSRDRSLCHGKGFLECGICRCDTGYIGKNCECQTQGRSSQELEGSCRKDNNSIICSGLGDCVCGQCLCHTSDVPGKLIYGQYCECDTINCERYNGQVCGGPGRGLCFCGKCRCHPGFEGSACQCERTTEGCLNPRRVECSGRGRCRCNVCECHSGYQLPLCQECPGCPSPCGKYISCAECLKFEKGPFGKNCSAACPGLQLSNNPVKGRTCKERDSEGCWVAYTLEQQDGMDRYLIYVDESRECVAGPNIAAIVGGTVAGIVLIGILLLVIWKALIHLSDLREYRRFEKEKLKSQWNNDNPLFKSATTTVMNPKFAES

B1: LtxA covalently labeled with fluorescein isothiocyanate (LtxA-FITC) (other)
chain: MATTSLLNTKQQAAQFANSVADRAKENIDAAKEQLQKALDKLGKTGKKLTLYIKNYKKGNGLTALIKAAQKLGIEVYHEGKDGPALTNGILNTGKKLLGLTERGLTLFAPELDKWIQGNKHLSNSVGSTGNLTKAIDKVQSVLGTLQAFLNTAFSGMDLDALIKARQNGKNVTDVQLAKASLNLINELIGTISSITNNVDTFSKQLNKLGEALGQVKHFGSFGDKLKNLPKLGNLGKGLGALSGVLSAISAALLLANKDADTATKAAAAAELTNKVLGNIGKAITQYLIAQRAAAGLSTTGPVAGLIASVVSLAISPLSFLGIAKQFDRARMLEEYSKRFKKFGYNGDSLLGQFYKNTGIADAAITTINTVLSAIAAGVGAASAGSLVGAPIGLLVSAITSLISGILDASKQAVFEHIANQLADKIKAWENKYGKNYFENGYDARHSAFLEDSLKLFNELREKYKTENILSITQQGWDQRIGELAGITRNGDRIQSGKAYVDYLKKGEELAKHSDKFTKQILDPIKGNIDLSGIKGSTTLTFLNPLLTAGKEERKTRQSGKYEFITELKVKGRTDWKVKGVPNSNGVYDFSNLIQHAVTRDNKVLEARLIANLGAKDDYVFVGSGSTIVNAGDGYDVVDYSKGRTGALTIDGRNATKAGQYKVERDLSGTQVLQETVSKQETKRGKVTDLLEYRNYKLDYYYTNKGFKAHDELNSVEEIIGSTLRDKFYGSKFNDVFHGHDGDDLIYGYDGDDRLYGDNGNDEIHGGQGNDKLYGGAGNDRLFGEYGNNYLDGGEGDDHLEGGNGSDILRGGSGNDKLFGNQGDDLLDGGEGDDQLAGGEGNDIYVYRKEYGHHTITEHSGDKDKLSLANINLKDVSFERNGNDLLLKTNNRTAVTFKGWFSKPNSSAGLDEYQRKLLEYAPEKDRARLKRQFELQRGKVDKSLNNKVEEIIGKDGERITSQDIDNLFDKSGNKKTISPQELAGLIKNKGKSSSLMSSSRSSSMLTQKSGLSNDISRIISATSGFGSSGKALSASPLQTNNNFNSYANSLATTAA
modifications: covalently labeled with fluorescein isothiocyanate (FITC); sites not stated
notes: also called leukotoxin-FITC
  binding result: binds

Source: patent publication EP2488198B1 (Rutgers, the State University of New Jersey, dated 2016)
